Biological target: recombinant human iduronate-2 sulfatase (rhIDS) (human) (UniProt P22304)
Test: cell-based or functional assay

Sequence of recombinant human iduronate-2 sulfatase (rhIDS) (human) (P22304 26-550 limits assumed): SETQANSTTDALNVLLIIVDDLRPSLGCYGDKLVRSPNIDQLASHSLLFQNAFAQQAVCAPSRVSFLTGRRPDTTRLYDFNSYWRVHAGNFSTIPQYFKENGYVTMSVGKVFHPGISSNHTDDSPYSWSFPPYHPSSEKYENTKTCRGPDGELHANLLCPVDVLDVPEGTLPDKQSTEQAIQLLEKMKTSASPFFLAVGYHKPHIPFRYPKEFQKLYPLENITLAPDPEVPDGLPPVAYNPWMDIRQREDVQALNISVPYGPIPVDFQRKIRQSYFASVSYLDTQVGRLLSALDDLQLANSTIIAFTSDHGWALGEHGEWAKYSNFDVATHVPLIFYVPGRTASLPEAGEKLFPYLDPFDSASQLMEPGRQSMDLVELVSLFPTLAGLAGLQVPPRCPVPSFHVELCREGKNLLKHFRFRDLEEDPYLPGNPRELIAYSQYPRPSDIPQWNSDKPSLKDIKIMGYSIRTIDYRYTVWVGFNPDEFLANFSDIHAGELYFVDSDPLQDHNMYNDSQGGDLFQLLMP

Substance	% FGly (LC-MS); 1 copy rhIDS, 1 copy BtFGE (POX) [%]	% FGly (LC-MS); 1 copy rhIDS, 1 copy BtFGE (POX), 1 copy hPDI (POX) [%]	% FGly (LC-MS); co-expression with DpFGE [%]
Bos taurus FGE fusion protein (Lip2pre-BtFGE-6HIS-HDEL) (from UniProt Q0P5L5 34-374) (enzyme)	100	100	–
Dendroctonus ponderosa Lip2-DpFGE-His6-HDEL fusion construct (enzyme)	–	–	25
